According to publication PMC10397247:

Key:
P8mS = molecular target: T1, P8mS; assay: two-hybrid library CC1; conditions: mean of both orientations;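 also: natural log of median RNA to DNA barcode read ratio; higher means stronger binding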
T1 chain: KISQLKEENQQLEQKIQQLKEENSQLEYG

P8 = molecular target: T2, P8; assay: two-hybrid library CC1;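 also: natural log of median RNA to DNA barcode read ratio; higher means stronger binding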
T2 chain: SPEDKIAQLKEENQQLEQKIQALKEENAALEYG

P9 = molecular target: T3, P9; assay: two-hybrid library CC1; conditions: mean of both orientations;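 also: natural log of median RNA to DNA barcode read ratio; higher means stronger binding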
T3 chain: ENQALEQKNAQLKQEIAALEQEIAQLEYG

4H967-AA = molecular target: T4, 4H967-AA; assay: two-hybrid library CCmax;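 also: natural log of median RNA to DNA barcode read ratio; higher means stronger binding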
T4 chain: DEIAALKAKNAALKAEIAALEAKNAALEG

4H3162-AA = molecular target: T5, 4H3162-AA; assay: two-hybrid library CCmax; conditions: mean of both orientations;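 also: natural log of median RNA to DNA barcode read ratio; higher means stronger binding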
T5 chain: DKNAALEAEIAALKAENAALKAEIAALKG

4H340-AA = molecular target: T6, 4H340-AA; assay: two-hybrid library CCmax; conditions: mean of both orientations;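 also: natural log of median RNA to DNA barcode read ratio; higher means stronger binding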
T6 chain: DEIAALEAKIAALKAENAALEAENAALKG

4H3588-AA = molecular target: T7, 4H3588-AA; assay: two-hybrid library CCmax; conditions: mean of both orientations
T7 chain: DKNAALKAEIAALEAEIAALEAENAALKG

4H32-AA = molecular target: T8, 4H32-AA; assay: two-hybrid library CCmax; conditions: mean of both orientations
T8 chain: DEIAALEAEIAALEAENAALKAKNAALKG

4H3718-AA = molecular target: T9, 4H3718-AA; assay: two-hybrid library CCmax; conditions: mean of both orientations
T9 chain: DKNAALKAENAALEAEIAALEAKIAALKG

4H3133-AA = molecular target: T10, 4H3133-AA; assay: two-hybrid library CCmax; conditions: mean of both orientations
T10 chain: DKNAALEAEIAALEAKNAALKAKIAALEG

4H3378-AA = molecular target: T11, 4H3378-AA; assay: two-hybrid library CCmax; conditions: mean of both orientations
T11 chain: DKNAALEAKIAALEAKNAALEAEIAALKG

4H3056-AA = molecular target: T12, 4H3056-AA; assay: two-hybrid library CCmax; conditions: mean of both orientations
T12 chain: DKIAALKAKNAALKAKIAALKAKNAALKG

4H2907-AA = molecular target: T13, 4H2907-AA; assay: two-hybrid library CCmax
T13 chain: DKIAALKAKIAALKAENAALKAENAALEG

4H3865-AA = molecular target: T14, 4H3865-AA; assay: two-hybrid library CCmax; conditions: mean of both orientations
T14 chain: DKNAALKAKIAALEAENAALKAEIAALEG

4H3413-AA = molecular target: T15, 4H3413-AA; assay: two-hybrid library CCmax; conditions: mean of both orientations
T15 chain: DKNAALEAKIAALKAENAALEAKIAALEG

4H697-AA = molecular target: T16, 4H697-AA; assay: two-hybrid library CCmax; conditions: mean of both orientations
T16 chain: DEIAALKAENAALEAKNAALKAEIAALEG

4H982-AA = molecular target: T17, 4H982-AA; assay: two-hybrid library CCmax; conditions: mean of both orientations
T17 chain: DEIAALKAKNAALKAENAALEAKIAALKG

4H3606-AA = molecular target: T18, 4H3606-AA; assay: two-hybrid library CCmax; conditions: mean of both orientations
T18 chain: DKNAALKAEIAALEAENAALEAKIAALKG

4H3631-AA = molecular target: T19, 4H3631-AA; assay: two-hybrid library CCmax; conditions: mean of both orientations
T19 chain: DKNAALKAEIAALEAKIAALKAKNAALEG

4H384-AA = molecular target: T20, 4H384-AA; assay: two-hybrid library CCmax; conditions: mean of both orientations
T20 chain: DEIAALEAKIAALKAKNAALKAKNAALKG

4H3697-AA = molecular target: T21, 4H3697-AA; assay: two-hybrid library CCmax; conditions: mean of both orientations
T21 chain: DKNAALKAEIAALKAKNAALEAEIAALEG

4H570-bH = molecular target: T22, 4H570-bH; assay: two-hybrid library CCNG1
T22 chain: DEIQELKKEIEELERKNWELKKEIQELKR

4H3974-bH = molecular target: T23, 4H3974-bH; assay: two-hybrid library CCNG1
T23 chain: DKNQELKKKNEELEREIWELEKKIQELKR

4H619-bH = molecular target: T24, 4H619-bH; assay: two-hybrid library CCNG1
T24 chain: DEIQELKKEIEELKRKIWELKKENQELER

4H584-bH = molecular target: T25, 4H584-bH; assay: two-hybrid library CCNG1
T25 chain: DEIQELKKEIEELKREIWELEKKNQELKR

4H850-bH = molecular target: T26, 4H850-bH; assay: two-hybrid library CCNG1
T26 chain: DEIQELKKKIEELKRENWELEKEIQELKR

4H906-bH = molecular target: T27, 4H906-bH; assay: two-hybrid library CCNG1
T27 chain: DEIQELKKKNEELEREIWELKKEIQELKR

SPEDKIAQLKEENQQLEQKIQALKEENAALEYG [P8] showed an interaction score (P8mS) of -2.75, an interaction score (P8) of -2.5 and an interaction score (P9) of -1.88.

Binder DEIAALKAKNAALKAEIAALEAKNAALEG [4H967-AA] has an interaction score (4H967-AA) of -0.481.

With DKIAALKAKIAALKAENAALKAENAALEG [4H2907-AA] the interaction score (4H3162-AA) was -1.39, the interaction score (4H340-AA) was 1.31 and the interaction score (4H3588-AA) was 1.57. For the same binder, the interaction score (4H32-AA) was 2.38, the interaction score (4H3718-AA) was -1.65 and the interaction score (4H3133-AA) was -1.24. The interaction score (4H3378-AA) was -1.66, the interaction score (4H3056-AA) was -2.08 and the interaction score (4H2907-AA) was -0.959. It also gave an interaction score (4H3865-AA) of -1.75, an interaction score (4H3413-AA) of -2.21 and an interaction score (4H697-AA) of -1.18. For the same binder, the interaction score (4H982-AA) was -1.58, the interaction score (4H3606-AA) was 0.48 and the interaction score (4H3631-AA) was -1.81. For the same binder, the interaction score (4H384-AA) was 1.15 and the interaction score (4H3697-AA) was -1.97.

DKNQELKKKNEELEREIWELEKKIQELKR [4H3974-bH] was tested, and the interaction score (4H570-bH) was -0.965, the interaction score (4H3974-bH) was -0.338 and the interaction score (4H619-bH) was -0.167. For the same binder, the interaction score (4H584-bH) was -0.203, the interaction score (4H850-bH) was -0.0332 and the interaction score (4H906-bH) was -0.332.
